Experimental data from publication PMC4075990.

What was measured:
purified protein [1] = substrate: N#Cc1cccnc1; assay: purified protein; details: 0.05 M potassium phosphate pH 6.5, 10 nM enzyme, 0.05-0.75 M substrate
purified protein [2] = substrate: N#Cc1cn([C@@H]2O[C@H](CO)[C@@H](O)[C@H]2O)c2ncnc(N)c12; assay: purified protein; details: 0.05 M potassium phosphate pH 6.5, 10 nM enzyme, 0.1-2.5 mM substrate

B1: ToyJKL (toyocamycin nitrile hydratase, TNHase) (Streptomyces rimosus) (protein)
chain 1: MSTEHVSLPIAARVRRLEERVIAAGLVTDEQLDTILEHNLSRATPFNGARLVARAWTSPDFRDLLLGEPAAALREMGLDGLLADDEHLRVVANTPTVHNVVVCTLCSCYPVLLLGPSPSWYKSDAYRARVVREPRAVLAEFGTVLPAEVDVRVWDASAEARYMVLPRRPAGTEGLDEEGLAARVTRAGLIGTAPV
chain 2: MGERRFSVGDPVRVRPADPPHHTRVPRYVRGHLGHVVTVQPPCPLPDDVARRRDPFRVLPVYTVRFAARDLWGSGTHLVLIDLWECYLEPAAETARGLGGETS
chain 3: MARLNDIGGTFGYGSIPMDGAEPPHPWRHDWEARVFAVLIGLAMAGVWTASELRDAEERVPPNDYLAASYYERVLMGMELLLDEKGIPSRG
B1 was tested, and the Km (purified protein [1]) was 99 ± 2 mM, the kcat (purified protein [1]) was 79 ± 5 s⁻¹ and the kcat/Km (purified protein [1]) was 800 M⁻¹ s⁻¹. For the same protein, the Km (purified protein [2]) was 2.8 × 10^–2 ± 1 × 10^–3 mM, the kcat (purified protein [2]) was 159 ± 2 s⁻¹ and the kcat/Km (purified protein [2]) was 5.7e+06 M⁻¹ s⁻¹.
